Data taken from patent US20110223168A1 (published 2011).

Experiments:
human TNFα [1] = target: T1, human TNFα (human, UniProt P01375 77-233); test: not stated; printed under 'Equilibrium dissocation constant (Kd = Koff/Kon)' in the data summary
T1 construct: Coated on plates, coupled to a CM5 chip, or added in solution (10 ng/ml) in the TNF receptor assay; the assay paragraphs often print only 'TNF'; also called TNF alpha; TAR1

human TNFα [2] = target: T1, human TNFα; test: TNF receptor assay: inhibition of TNF binding to TNFR1-Fc (ELISA)
human TNFα [3] = target: T1, human TNFα; test: antigen ELISA
Method: (§1) Binding activity of dimeric recombinant proteins was compared to monomer by Protein A/L ELISA or by antigen ELISA. Briefly, a 96 well plate is coated with antigen or Protein A/L overnight at 4° C. The plate washed with 0.05% Tween-PBS, blocked for 2 hrs with 2% Tween-PBS. The sample is added to the plate incubated for 1 hr at room temperature. The plate is washed and incubated with the secondary reagent for 1 hr at room temperature. The plate is washed and developed with TMB substrate. Protein A/L-HRP or India-HRP was used as a secondary reagent.

[4] = target: bovine serum albumin (BSA) (bovine, UniProt P02769 25-607); test: antigen ELISA
Method: as §1

hen egg lysozyme (HEL) [5] = target: T2, hen egg lysozyme (HEL) (hen, UniProt P00698 19-147); test: selection from dAb libraries
T2 construct: also called hen egg white lysozyme

human TNFα [6] = target: T1, human TNFα; test: TNF receptor assay: inhibition of TNF binding to TNFR1-Fc (ELISA); remark: listed apart in the source
hen egg lysozyme (HEL) [7] = target: T2, hen egg lysozyme (HEL); test: ELISA on HEL coated at 3 mg/ml, detection with 9e10 (anti-myc) and anti mouse IgG-HRP
human p55 TNF receptor = target: T3, human p55 TNF receptor (human, UniProt P19438 30-211, limits assumed); test: selection from dAb libraries
T3 construct: Coupled to a CM5 chip or coated on immunotubes/plates; also called TNF receptor 1; TNFα receptor
T3 sequence (looked up): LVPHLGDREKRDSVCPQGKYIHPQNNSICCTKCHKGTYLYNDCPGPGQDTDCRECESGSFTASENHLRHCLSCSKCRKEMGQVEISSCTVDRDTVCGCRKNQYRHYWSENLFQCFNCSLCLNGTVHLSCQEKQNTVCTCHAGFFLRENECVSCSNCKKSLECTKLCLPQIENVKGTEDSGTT

human TNFα [8] = target: T1, human TNFα; test: TNF receptor assay: inhibition of TNF binding to TNFR1-Fc (ELISA); remark: listed apart in the source
human TNFα [9] = target: T1, human TNFα; test: TNF receptor assay; fermenter-expressed, cation exchange FPLC pure dimer

T1 sequence (P01375 77-233 limits assumed): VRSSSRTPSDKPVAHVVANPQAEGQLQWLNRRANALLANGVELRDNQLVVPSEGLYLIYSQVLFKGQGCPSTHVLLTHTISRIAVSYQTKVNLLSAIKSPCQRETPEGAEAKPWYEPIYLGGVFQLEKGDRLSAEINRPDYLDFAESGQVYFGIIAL
T2 sequence (P00698 19-147): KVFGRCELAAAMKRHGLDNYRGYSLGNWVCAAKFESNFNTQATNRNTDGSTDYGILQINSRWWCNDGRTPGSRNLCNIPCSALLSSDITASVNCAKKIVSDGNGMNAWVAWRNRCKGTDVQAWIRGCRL
Chain of bovine serum albumin (BSA) (P02769 25-607 limits assumed): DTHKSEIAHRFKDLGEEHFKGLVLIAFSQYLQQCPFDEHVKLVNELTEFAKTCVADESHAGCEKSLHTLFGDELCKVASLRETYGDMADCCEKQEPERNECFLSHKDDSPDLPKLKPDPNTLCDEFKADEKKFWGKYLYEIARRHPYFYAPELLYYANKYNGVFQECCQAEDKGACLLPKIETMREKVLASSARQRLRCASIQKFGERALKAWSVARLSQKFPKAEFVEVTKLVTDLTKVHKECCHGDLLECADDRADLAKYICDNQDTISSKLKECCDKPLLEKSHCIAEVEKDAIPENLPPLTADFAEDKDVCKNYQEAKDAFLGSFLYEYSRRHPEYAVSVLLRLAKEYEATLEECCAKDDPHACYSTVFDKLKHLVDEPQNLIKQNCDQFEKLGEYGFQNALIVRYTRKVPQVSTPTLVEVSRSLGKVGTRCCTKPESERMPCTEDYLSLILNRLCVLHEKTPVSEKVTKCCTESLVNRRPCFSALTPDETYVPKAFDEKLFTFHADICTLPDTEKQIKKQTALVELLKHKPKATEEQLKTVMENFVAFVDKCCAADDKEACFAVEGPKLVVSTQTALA

B1: TAR1-5-19 monomer (other)
VL: DIQMTQSPSSLSASVGDRVTITCRASQSIDSYLHWYQQKPGKAPKLLIYSASELQSGVPSRFSGSGSGTDFTLTISSLQPEDFATYYCQQVVWRPFTFGQGTKVEIKR
notes: also called TAR1-5-19 dAb
Kd (human TNFα [1]): 30 nM | IC50 (human TNFα [2]): 30 nM

B2: dAb1 monomer (other)
VL: DIQMTQSPSSLSASVGDRVTITCRASQSIYDALEWYQQKPGKAPKLLIYTASRLQSGVPSRFSGSGSGTDFTLTISSLQPEDFATYYCQQVMQRPVTFGQGTKVEIKR
notes: Vκ dAb monomer; also called partner dAb in TAR1-5d1, d5, d6
binding result (human TNFα [3]): binds | binding result [4]: no binding

B3: HEL4 (other)
VH: EVQLLESGGGLVQPGGSLRLSCAASGFRISDEDMGWVRQAPGKGLEWVSSIYGPSGSTYYADSVKGRFTISRDNSKNTLYLQMNSLRAEDTAVYYCASALEPLSEPLGFWGQGTLVTVSS
notes: VH dAb; also called HEL4 VH dAb; anti-hen egg white lysozyme dAb
binding result (hen egg lysozyme (HEL) [5]): binds

B4: TAR1-5-19CYS trimer (TMEA) (other)
VL: DIQMTQSPSSLSASVGDRVTITCRASQSIDSYLHWYQQKPGKAPKLLIYSASELQSGVPSRFSGSGSGTDFTLTISSLQPEDFATYYCQQVVWRPFTFGQGTKVEIKRC
modifications: C-terminal Cys coupled to TMEA (Tris[2-maleimidoethyl]amine)
notes: also called TAR1-5-19 homotrimer; trimeric TAR1-5-19CYS
IC50 (human TNFα [6]): 0.3 nM

B5: dAb3 monomer (other)
VL: DIQMTQSPSSLSASVGDRVTITCRASQSVKEFLWWYQQKPGKAPKLLIYMASNLQSGVPSRFSGSGSGTDFTLTISSLQPEDFATYYCQQKFKLPRTFGQGTKVEIKR
notes: Vκ dAb monomer; also called partner dAb in TAR1-5d4
binding result [4]: no binding

B6: TAR2h-5 (other)
VH: EVQLLESGGGLVQPGGSLRLSCAASGFTFDLYNMFWVRQAPGKGLEWVSFISQTGRLTWYADSVKGRFTISRDNSKNTLYLQMNSLRAEDTAVYYCAKTLEDFDYWGQGTLVTVSS
notes: VH dAb against TNF receptor 1; also called TAR2-5; TAR2h-5 VH dAb
ELISA signal (background) (hen egg lysozyme (HEL) [7]): 0.069 | binding result (human p55 TNF receptor): binds

B7: TAR1-5-19d4 (other)
chain: DIQMTQSPSSLSASVGDRVTITCRASQSIDSYLHWYQQKPGKAPKLLIYSASELQSGVPSRFSGSGSGTDFTLTISSLQPEDFATYYCQQVVWRPFTFGQGTKVEIKRGGGGSGGGGSGGGGSGGGGSGGGGSDIQMTQSPSSLSASVGDRVTITCRASQSVKEFLWWYQQKPGKAPKLLIYMASNLQSGVPSRFSGSGSGTDFTLTISSLQPEDFATYYCQQKFKLPRTFGQGTKVEIKR
notes: also called TAR1-5-19 dimer 4
IC50 (human TNFα [8]): 2 to 5 nM | IC50 (human TNFα [9]): 8 nM
